Data reported in article PMC8026907.
Positions count from the first letter of the chain named.

B1: SerC promoter 32-bp, fluorescein (dsDNA)
DNA 1: GCGCGTAGTGTGAACAAGCTCACATGCAAGCC
DNA 2: GGCTTGCATGTGAGCTTGTTCACACTACGCGC
B2: cAMP receptor protein from Mycobacterium tuberculosis, P9WMH3 (natural protein)
chain: MDEILARAGIFQGVEPSAIAALTKQLQPVDFPRGHTVFAEGEPGDRLYIIISGKVKIGRRAPDGRENLLTIMGPSDMFGELSIFDPGPRTSSATTITEVRAVSMDRDALRSWIADRPEISEQLLRVLARRLRRTNNNLADLIFTDVPGRVAKQLLQLAQRFGTQEGGALRVTHDLTQEEIAQLVGASRETVNKALADFAHRGWIRLEGKSVLISDSERLARRAR

Columns and labels:
CRP-MTB E178K [1] = target: T1, CRP-MTB E178K (Mycobacterium tuberculosis, UniProt P9WMH3 1-224, E178K); test: fluorescence anisotropy; no cAMP (apo); conditions: protein: recombinant; tags: His-tag (pET-3a); chain copies: 2; blunt
T1 sequence: B2 chain with E178K

CRP-MTB L47P [2] = target: T2, CRP-MTB L47P (Mycobacterium tuberculosis, UniProt P9WMH3 1-224, L47P); test: fluorescence anisotropy; no cAMP (apo); conditions: protein: recombinant; tags: His-tag (pET-3a); chain copies: 2; blunt
T2 sequence: B2 chain with L47P

CRP-MTB E178K [3] = target: T1, CRP-MTB E178K; test: fluorescence anisotropy; 0.1 mM cAMP; conditions: protein: recombinant; tags: His-tag (pET-3a); chain copies: 2; blunt
CRP-MTB L47P [4] = target: T2, CRP-MTB L47P; test: fluorescence anisotropy; 0.1 mM cAMP; conditions: protein: recombinant; tags: His-tag (pET-3a); chain copies: 2; blunt
CRP-MTB E178K [5] = target: T1, CRP-MTB E178K; test: fluorescence anisotropy; 1 mM cAMP; conditions: protein: recombinant; tags: His-tag (pET-3a); chain copies: 2; blunt
[6] = target: T3, cAMP receptor protein from Mycobacterium tuberculosis (Mycobacterium tuberculosis), P9WMH3; test: SEC; conditions: remark: other sources report otherwise
T3 chain: B2 chain

[7] = target: T3, cAMP receptor protein from …; test: AUC; conditions: remark: other sources report otherwise

| Binder | Ka (CRP-MTB E178K [1]) | Ka (CRP-MTB L47P [2]) | Ka (CRP-MTB E178K [3]) | Ka (CRP-MTB L47P [4]) | Ka (CRP-MTB E178K [5]) | stoichiometry N [6] | Kd [7] [µM] | stoichiometry N [7] |
| --- | --- | --- | --- | --- | --- | --- | --- | --- |
| B1 | 15 ± 5.3 1e8 M-1 | 2.7 ± 0.9 1e8 M-1 | 10 ± 5 1e8 M-1 | 7.3 ± 3 1e8 M-1 | 21 ± 12.9 1e8 M-1 |  |  |  |
| B2 |  |  |  |  |  | 2 | < 0.01 | 2 |
